Results from publication PMC12707363.

Key:
[1] = SEC; analytical SEC (AdvanceBio SEC 200 Å) of the purified Int^N precursor alone; each protein diluted to 10 µM and incubated for 24 h at 15 °C before the run; monomer against soluble high-MW aggregates eluting at the void volume
[2] = SEC; SEC of the Int^N precursors with the native single cysteine (Figure S3c), no reducing agent; conditions not shown

Row | Substance | percent soluble high-MW aggregates [1] [%] | percent aggregated species [2] [%]
1 | MBP‐CP21^N(C43S)‐H6 | 77 | 
2 | MBP‐CP21^N‐H6 |  | 90
3 | MBP‐GOM^N(C57S)‐H6 | 76 | 
4 | MBP‐GOM^N‐H6 |  | 78
